Positions count from the first letter of the chain named.

This note sets out measurements from patent US20250340659A1 (PETMEDIX, published 2025).

T1: canine OX40L, full length membrane form, expressed on HEK293 cells (canine)
T1 construct: also called OX40L expressing HEK; HEK OX40L cells
T1 chain: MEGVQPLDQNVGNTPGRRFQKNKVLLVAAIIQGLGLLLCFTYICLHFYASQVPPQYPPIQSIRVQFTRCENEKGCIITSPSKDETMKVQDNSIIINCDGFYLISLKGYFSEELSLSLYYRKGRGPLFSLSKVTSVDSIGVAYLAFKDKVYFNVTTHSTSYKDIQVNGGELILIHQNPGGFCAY

B1: PMX082 (antibody, V domains shown)
VH: EVQLVESGGDLVKPGGSLRLSCVASGFTFSSHHMTWVRQAPGKGLQWVAYIVSGGTNTNYADAVKGRFTISRDNAKNTLYLQMNSLRAEDTAVYYCASDLVLAVGAPFYWGQGTLVTVSS
VL: SYELTQPPSVNVTLRETAHITCGGDSIGRKYVQWIQQNPGQAPVVIIYKDINRPTGIPERFSGANSGNTATLTISGALAEDEADYYCQVGDSGTKAVFGEGTQLTVL
notes: also called PMX82
B2: PMX083 (antibody, V domains shown)
VH: EVQLVESGGDLVKPGGSLRLSCVASGFTFRTYHMSWVRQAPGKGLQWVAYITRDGISTTYTDAVKGRFTISRDNAKNTLFLQMNSLRADDTAVYYCASDLVLVLGAPFYWGQGTLVTVSS
VL: B1 VL with R15G, I51S
notes: also called PMX83
B3: PMX084 (antibody, V domains shown)
VH: EVQLVESGGDLVKPEGSLRLSCVVSGFTFSNYDMSWVRQAPGKGLQWVAFISNDGRITGYTDAVEGRFTISRDNAKNTLYLQMNSLRTEDTAVYYCAKETSRWGFDYWGQGTLVTVSS
VL: SYVLTQLPSVSVTLRQTARITCGGDSIGSKNVYWHQQKLGQAPVLIIYDDSSRPSGIPERFSGANSGNTATLTISGALAEDEADYYCQVWDSSTSVFGGGTHLTVL
notes: also called PMX84
B4: PMX086 (antibody, V domains shown)
VH: EVQLVESGGDLVKPGGSLRLSCVASGFTFSSYHMSWVRQAPGKGLQWVAFINSAESSTTYADAVKGRFTISRDNAKNTLYLQMNSLRAEDTAVYYCAGGYIWTHFDYWGQGTLVTVSS
VL: B3 VL with S26I, N31S, H35Y, K38N, D49R, S51T, S52N, S55T, N65S
B5: PMX062 (antibody)
heavy: EVQLVESGGDLVKPEGSLRLSCVVSGFTFSSYDMSWVRQAPGKGLQWVAYISFDGRSTSYTDVVKGRFTISRDNAKTTLYLQMNTLRIEDTAVYYCAKLSSSGWSMDYWGHGTSLFVSSASTTAPSVFPLAPSCGSTSGSTVALACLVSGYFPEPVTVSWNSGSLTSGVHTFPSVLQSSGLYSLSSMVTVPSSRWPSETFTCNVAHPASKTKVDKPVPKRENGRVPRPPDCPKCPAPESLGGPSVFIFPPKPKDTLLIARTPEVTCVVVDLGREDPEVQISWFVDGKQMQTAKTQPREEQFNGTYRVVSVLPIGHQDWLKGKQFTCKVNHIGLPSPIERTISKARGQAHQPSVYVLPPSREELSKNTVSLTCLIKDFFPPDIDVEWQSNGQQEPESKYRTTPPQLDEDGSYFLYSKLSVDKSRWQRGDTFICAVMHEALHNHYTQKSLSHSPGK
VL: SYVLTQLPSKNVTLKQPAHITCGGDNIGSKSVHWYQQKLGQAPVLIIYYDSSRPTGIPERFSGANSGNTATLTISGALAEDEADYYCQVWDSSASVFGGGTHLTVL
notes: also called PMX62
B6: PMX085 (antibody, V domains shown)
VH: EVKLVESGGDLVKPEGSLRLSCVVSGFTFSRYGMSWVRQAPGKGLQWVAYISSDGRSSSYTDAVQGRFTISSDNAKNTLYLQMNSLTTEDTAVYYCAKLGRGFNFNFWGQGTLVTVSS
VL: B5 VL
notes: also called PMX85
B7: PMX094 (antibody, V domains shown)
VH: DIHLVESGGDLVRPGGSLRLSCVASGFTFSNLHMNWVRQAPGKGLQWVAFINSGGSGTTYADVVRGRFTISRDYAKNTLYLQMNSLRADDTAVYYCASGSIWTHFDYWGQGTLVTVSS
VL: SFVLTQLPSVSVTLRQTARITCGGDSIGSKSVYWYQQKLGQAPVLIIYRDSNRPTGIPERISGASSGNTATLTISGALAEDEADYYCQVWDSSNKAMFGGGTHLTVL
B8: PMX099 (antibody, V domains shown)
VH: B7 VH with D1E, I2V, H3Q, N31S, L32Y, G57S, D89E
VL: B7 VL with S29T, I61F
B9: PMX101 (antibody, V domains shown)
VH: B7 VH with D1E, I2V, H3Q, L32Y, N35S, G57S, T59S, V63A, D89E
VL: B7 VL with S26I, Y35F, V44I, S51D, I61F, T73I, D84H, N94S
B10: PMX103 (antibody, V domains shown)
VH: B7 VH with D1E, I2V, H3Q, Y80N, N84T, D89E, S98T
VL: B7 VL
B11: PMX095 (antibody, V domains shown)
VH: B7 VH with D1A, I2V, H3Q, N31S, L32Y, G57S, Y80F, D89E, S98I
VL: B7 VL with S26I, S31N, K38R, I47L, S51T, I61F, S92N
B12: PMX100 (antibody, V domains shown)
VH: B7 VH with D1E, I2V, H3Q, N31S, L32Y, N35S, G57S, D89E
VL: B7 VL with K38R, I61F, S92N
B13: PMX089 (antibody, V domains shown)
VH: EVQLVESGGDLVKPGGSLRLSCVASGFTFNNFHMSWVRQAPGKGLQWVAFINSDGGNRNYADVVKGRVTISRDYAKNTLYLQINSLRAEDTAVYYCAGGSIWTHFDYWGQGTLVTVSS
VL: SYVLTQLPSMSVTLRQTARITCEGDIIASKRIYWYQQKLGQVPVLLIYADSSRPSGIPERFSGASSGNTATLTISGALAEDEADYYCQVWDNNANSVFGGGTHLTVL
B14: PMX093 (antibody, V domains shown)
VH: B4 VH with A54G, E55G, S56G, S57G, T59N, N74Y, A97V, Y100S
VL: B13 VL with I32V, A49G, S65N, N92S, N93G, A94T
B15: PMX092 (antibody, V domains shown)
VH: B13 VH with F32L, G56R, V63A, A97T
VL: B13 VL with I32V, L46F, S51N, N92S
B16: PMX096 (antibody, V domains shown)
VH: EVQLVESGGDLVKPGGSLRLSCVASGFTFNTYHMNWVRQAPGKGLHWVAFINSGGSDTSYADTVQGRFTISRDYAKNTLYLQMNSLRAEDTAVYYCASGYIWTHFDYWGQGTLVTVSS
VL: SYVLTQLPSVSVTLRQTAHITCGGDIIGSKSVYWYQQKLGQAPVMIIYRDNNRPTGIPERFSGASSGNTATLTISGSLAEDEADYYCQVWDSRTQALFGGGTHLTVL

In one assay the target is T1, canine OX40L, full length membrane …. As to the kind of experiment: flow cytometry, OX40L HEK minus WT HEK. As to the method: (§1) CHO supernatants diluted in FACS buffer (PBS containing 3% FBS) at 1, 5 or 10 μg/ml were used to screen for their binding capacity to canine OX40L using a cell-based assay. In brief, HEK293 or MEF cells (or any other commonly used cell lines) expressing canine OX40L at the cell surface are incubated with 100 μll of FACS buffer containing the candidate antibody for 30′ on ice. Cells are washed with 150 μl FACS buffer followed by centrifugation at 300 g for 3 min. The cell pellet is resuspended in FACS buffer containing a 1:1000 dilution of a fluorescently labelled secondary antibody recognising the canine Fc region of the test antibody for 30 min in the dark, followed by washing with 150 μl FACS buffer. Cells are resuspended in FACS buffer and flow cytometry performed using either a […] cytometer, followed by data analysis using FlowJo (FIG. 6 and Table 4).
In general terms: Flow cytometry measures light scatter and fluorescence of single cells or particles in a stream.
In turn, B1 displayed a GEO mean difference of 531000.
Still for that read-out and setting: under B2 stands 690000; under B3, 610000.
B4 showed a GEO mean difference of 849000.
B5 displayed a GEO mean difference of 2.78e+06.
Regarding B6, the GEO mean difference worked out at 826000.

The target is the same in the next assay. As to the kind of experiment: flow cytometry. As to the method: as §1
As to B1, the “GEO mean OX40L expressing HEK” value turned out to be 544000.
Still for that read-out and setting: under B2 stands 701000; under B3, 622000.
Turning to B4, the “GEO mean OX40L expressing HEK” value was determined as 857000.
Take B5: the “GEO mean OX40L expressing HEK” value is 2.81e+06.
On to B6, for which the “GEO mean OX40L expressing HEK” value came to 839000.

The next assay has the same target. The assay is described as follows: cell-based or functional assay.
In the case of B1, the “% Signal Inhibition Average” value is 72.3%, the “% Signal Inhibition Rep1” value was 72.8%, the “% Signal Inhibition Rep2” value was 71.9% and the “% Signal Inhibition Rep3” value stood at 72.1%.
As for B2, the “% Signal Inhibition Average” value stood at 71.1%, the “% Signal Inhibition Rep1” value came to 66%, the “% Signal Inhibition Rep2” value worked out at 65.8% and the “% Signal Inhibition Rep3” value is 81.6%.
In the case of B3, the “% Signal Inhibition Average” value is 60.7%, the “% Signal Inhibition Rep1” value was 47.2%, the “% Signal Inhibition Rep2” value was 66.9% and the “% Signal Inhibition Rep3” value was found to be 68%.
Take B4: the “% Signal Inhibition Average” value worked out at 18.3%, the “% Signal Inhibition Rep1” value was 5.85%, the “% Signal Inhibition Rep2” value stood at 35.1% and the “% Signal Inhibition Rep3” value was 14%.
Consider B7, for which the “% Signal Inhibition Average” value stood at 45.4%, the “% Signal Inhibition Rep1” value is 38.6%, the “% Signal Inhibition Rep2” value was found to be 55% and the “% Signal Inhibition Rep3” value worked out at 42.7%.
On the same counts, the results for B8 are 24.8%, 25.1%, 32.7% and 16.4%.
Consider B9, for which the “% Signal Inhibition Average” value was 52.4%, the “% Signal Inhibition Rep1” value was 62.6%, the “% Signal Inhibition Rep2” value was found to be 50.3% and the “% Signal Inhibition Rep3” value stood at 44.4%.
As for B10, the “% Signal Inhibition Average” value is 47.6%, the “% Signal Inhibition Rep1” value was 57.3%, the “% Signal Inhibition Rep2” value was determined as 26.3% and the “% Signal Inhibition Rep3” value worked out at 59.1%.
With B11, the “% Signal Inhibition Average” value came out at 50.3%, the “% Signal Inhibition Rep1” value turned out to be 40.9%, the “% Signal Inhibition Rep2” value worked out at 52.6% and the “% Signal Inhibition Rep3” value is 57.3%.
With B12, the “% Signal Inhibition Average” value is 32.4%, the “% Signal Inhibition Rep1” value was found to be 49.1%, the “% Signal Inhibition Rep2” value amounted to 28.1% and the “% Signal Inhibition Rep3” value was determined as 19.9%.
In the case of B13, the “% Signal Inhibition Average” value was 47.4%, the “% Signal Inhibition Rep1” value is 43.3%, the “% Signal Inhibition Rep2” value came out at 49.7% and the “% Signal Inhibition Rep3” value was determined as 49.1%.
On the same counts, the results for B14 are 5.46%, 0%, -0.585% and 17%.
With B15, the “% Signal Inhibition Average” value was determined as 34.7%, the “% Signal Inhibition Rep1” value stood at 33.3%, the “% Signal Inhibition Rep2” value stood at 39.2% and the “% Signal Inhibition Rep3” value stood at 31.6%.
The corresponding values for B5 are 15%, 4.15%, 22.1% and 18.7%.
The corresponding values for B6 are 46.9%, 43.8%, 56.2% and 40.8%.
For B16, the “% Signal Inhibition Average” value is 50.1%, the “% Signal Inhibition Rep1” value turned out to be 36.8%, the “% Signal Inhibition Rep2” value worked out at 59.1% and the “% Signal Inhibition Rep3” value worked out at 54.4%.
